Source: patent publication US20220348651A1, “ENTPD2 ANTIBODIES, COMBINATION THERAPIES, AND METHODS OF USING THE ANTIBODIES AND COMBINATION THERAPIES” (Novartis AG, priority 2019, published 2022)

T1: ENTPD2 (Homo sapiens, UniProt Q9Y5L3)
T1 sequence (Q9Y5L3 1-495): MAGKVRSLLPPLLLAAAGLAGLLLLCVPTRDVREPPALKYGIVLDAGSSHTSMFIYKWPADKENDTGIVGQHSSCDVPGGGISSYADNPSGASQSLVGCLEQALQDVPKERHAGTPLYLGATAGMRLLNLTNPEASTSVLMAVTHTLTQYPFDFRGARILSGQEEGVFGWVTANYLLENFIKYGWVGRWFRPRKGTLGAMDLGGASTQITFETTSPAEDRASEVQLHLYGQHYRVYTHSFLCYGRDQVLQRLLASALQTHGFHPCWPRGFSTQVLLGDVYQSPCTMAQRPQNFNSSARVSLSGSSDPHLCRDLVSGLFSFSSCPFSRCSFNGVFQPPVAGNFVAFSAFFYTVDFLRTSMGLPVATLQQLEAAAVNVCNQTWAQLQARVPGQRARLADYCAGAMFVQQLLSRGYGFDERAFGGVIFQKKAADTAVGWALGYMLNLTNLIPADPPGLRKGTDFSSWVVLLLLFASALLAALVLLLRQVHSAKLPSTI

T2: mouse ENTPD2 (Mus musculus, UniProt O55026)
T2 construct: expressed in transfected cells; host or cells: NIH/3T3 (retroviral transduction)
T2 sequence (O55026 1-495): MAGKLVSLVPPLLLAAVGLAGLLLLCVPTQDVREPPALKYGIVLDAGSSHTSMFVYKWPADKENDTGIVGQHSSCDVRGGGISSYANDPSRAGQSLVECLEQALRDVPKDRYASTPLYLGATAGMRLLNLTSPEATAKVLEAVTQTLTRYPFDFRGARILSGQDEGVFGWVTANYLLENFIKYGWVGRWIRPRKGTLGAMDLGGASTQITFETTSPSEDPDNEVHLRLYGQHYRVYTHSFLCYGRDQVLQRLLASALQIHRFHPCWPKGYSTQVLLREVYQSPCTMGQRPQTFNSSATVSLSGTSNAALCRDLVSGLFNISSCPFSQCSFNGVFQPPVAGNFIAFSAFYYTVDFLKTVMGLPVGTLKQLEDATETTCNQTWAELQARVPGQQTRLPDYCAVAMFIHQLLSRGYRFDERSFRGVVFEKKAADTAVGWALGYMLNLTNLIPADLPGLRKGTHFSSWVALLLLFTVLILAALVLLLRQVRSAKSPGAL

T3: recombinant human ENTPD2 (residues 29-462) (Homo sapiens, UniProt Q9Y5L3)
T3 construct: residues 29-462 of human or cyno ENTPD2 were cloned into expression vector; GP67 signal peptide (N); made in house; host or cells: High Five (Trichoplusia ni) insect cells, baculovirus
T3 sequence (Q9Y5L3 29-462): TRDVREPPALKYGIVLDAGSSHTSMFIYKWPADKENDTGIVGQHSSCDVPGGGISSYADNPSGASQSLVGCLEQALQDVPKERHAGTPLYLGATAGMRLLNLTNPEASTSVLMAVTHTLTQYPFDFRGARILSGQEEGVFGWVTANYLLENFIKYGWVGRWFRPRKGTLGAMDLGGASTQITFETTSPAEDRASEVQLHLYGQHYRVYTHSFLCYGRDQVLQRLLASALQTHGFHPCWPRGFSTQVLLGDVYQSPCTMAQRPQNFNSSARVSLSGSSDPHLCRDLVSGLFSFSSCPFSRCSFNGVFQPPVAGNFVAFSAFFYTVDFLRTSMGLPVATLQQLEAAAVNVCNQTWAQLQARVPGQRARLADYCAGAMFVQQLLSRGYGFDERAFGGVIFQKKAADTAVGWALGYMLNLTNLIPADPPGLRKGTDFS


Legend:
ENTPD2 = target: T1, ENTPD2; experiment: Hybridoma mAb screen: cell-based assay for inhibition of ATP hydrolysis by ENTPD2; conditions: hybridoma-derived mAbs
From the text: Hybridoma-derived mAbs were screened in a cell-based assay for inhibition of ATP hydrolysis by ENTPD2.

mouse ENTPD2 = target: T2, mouse ENTPD2; experiment: Mouse ENTPD2 NIH/3T3 cell-based functional assay; conditions: mouse ENTPD2 NIH/3T3 cells, 100 nM
From the text: (§1) Biochemical and cell-based functional assays were developed in-house to understand functional impact of anti-ENTPD2 Abs against purified extracellular domain of ENTPD2 (residues 29-462), as well as against the fully intact protein in the context of the native cell-based conformation. ENTPD2 hydrolyzes ATP to ADP, which can subsequently be detected using the HTRF Transcreener ADP2 TR-FRET Red Assay (BellBrook Labs, Madison, Wis.) where ENTPD2-produced ADP would compete with the ADP Tracer for binding to the anti-ADP-Tb antibody. The resulting signal is inversely proportional to the concentration of ADP in the sample.
To establish cell-based functional assays, human/cyno/mouse ENTPD2-engineered NIH/3T3 cells or RKO (ATCC, Manassa Va.) colorectal cancer cells with endogenous ENTPD2 expression were plated overnight at 150, 200 and 250 cells per well for NIH/3T3 mouse, cyno and human ENTPD2 lines, respectively, or 1000 cells per well for RKO in 384-well tissue culture plate, in 30 μl per well (Perkin Elmer, Waltham, Mass.). The following day cells were pre-incubated with Anti-ENTPD2 Abs in dose response for 60 min at 37° C., 5% CO2 (10 μl of 5× antibody dose per well), and subsequently stimulated with a final concentration of 10 μM ATP (Teknova, Hollister, Calif.) for 20 minutes at room temperature (10 μl of 5× (50 μM) ATP per well). Reactions were quenched with 40 mM EDTA/40 mM EGTA, 25 μl per well, and 15 μl of quenched media was transferred to low volume Proxiplates (PerkinElmer, Waltham, Mass.) for ADP detection. ADP production was detected with the Transcreener ADP2 TR-FRET Red Assay (BellBrook Labs, Madison, Wis.) with a final concentration of 4 nM ADP2 antibody and 13.4 nM of ADP Tracer in wells (4× solution was prepared and 5 μL of “Detection Reagent Mix” was added to the quenched conditioned media). Plates were incubated with detection reagents for 1 hour at room temperature prior to reading plates in HTRF mode.
(§2) HTRF signal (Emission at 620 nm and 665 nm) was assessed in both assays using the Envision plate reader in HTRF mode (Perkin Elmer, Waltham, Mass.). HTRF ratio was determined using the following formula: HTRF ratio=R=Emission at 665 nm/Emission at 620 nm×10,000. Subsequently % Residual Activity and % Inhibition were determined as follows:
(§3) Where R0% is the HTRF ratio of the negative control (0% enzyme activity), and R100% is the HTRF ratio of the positive control (100% enzyme activity). Data were analyzed in Microsoft Excel and graphed using GraphPad's Prism 7.0 software and IC50 values were obtained using non-linear regression, log (agonist) vs. response-variable slope (four parameters) analysis.
Anti-ENTPD2 mAb13 was identified as a mouse ENTPD2 selective Ab (FACS EC50 3-4 nM) with no binding to human or cyno ENTPD2.

[1] = target: T3, recombinant human ENTPD2 (residues 29-462); experiment: Biochemical human ENTPD2 functional assay (Transcreener ADP2 TR-FRET); conditions: FIG. 15
From the text: as §1
To evaluate activity of anti-ENTPD2 Abs in the ENTPD2 biochemical assay, anti-ENTPD2 Abs and recombinant ENTPD2 (residues 29-462) were diluted in reaction buffer (50 mM HEPES, pH 7.1, 10 mM MgCl2, 0.01% BSA) to the desired concentration. 4 μL per well of the ENTPD2 solution and 2 μL per well of the Anti-ENTPD2 Ab solution were transferred into a ProxiPlate (PerkinElmer, Waltham, Mass.) and incubated for 30 min at room temperature. Reaction was then initiated via addition of 2 μl of ATP (final assay concentration of 1 μM), and the sample was incubated for 25 min at room temperature. […]
as §2, §3

Molecule | % Inhibition at 100 nM (±Std Err) (mouse ENTPD2) [%] | inhibition of the catalytic activity of recombinant human ENTPD2 [1] | also measured
mAb16: hybridoma-derived lead inhibitory anti-human ENTPD2 mAb; VH/VL DNA SEQ ID NO: 226/230 (antibody, V domains shown) VH: DIQLQESGPGLVKPSQSLSLTCSVTGYSITSGYYWNWIRQFPGNKLEWMGYISYDGDNNYNPSLKNRISITRDTSKNQFFLKLSSVTTEDTATYYCAGGYYRYGLSYYYVMDYWGQGTSVTVSS VL: DTVLTQSPASLAVSLGQRATISCKASQSVDYDGNSYMNWYQQKPGQPPKLLIYAASNLESGIPARFSGSGSGTDFTLNIHPVEEEDAATYYCQQSNEDPPTFGGGTKLEIK | – | – | inhibition of ATP hydrolysis by ENTPD2 (ENTPD2): lead inhibitory mAbs
mAb14: anti-mouse ENTPD2 antibody, T30 variant of mAb13; HC SEQ ID NO: 211, LC SEQ ID NO: 204 (antibody) heavy: QVQLVQSGAELKQPGQSVKISCKASGYTFWHYGMNWVKQAPGQGLKWMGWINTDTGNPTYADDFKGRFVFSLDTSVSTAYLQISNLKNEDTATYYCVRYGTLYSGYGFFFDSWGQGTLVTVSSAKTTAPSVYPLAPVCGDTTGSSVTLGCLVKGYFPEPVTLTWNSGSLSSGVHTFPAVLQSDLYTLSSSVTVTSSTWPSQSITCNVAHPASSTKVDKKIEPRGPTIKPCPPCKCPAPNLLGGPSVFIFPPKIKDVLMISLSPIVTCVVVDVSEDDPDVQISWFVNNVEVHTAQTQTHREDYNSTLRVVSALPIQHQDWMSGKEFKCKVNNKDLPAPIERTISKPKGSVRAPQVYVLPPPEEEMTKKQVTLTCMVTDFMPEDIYVEWTNNGKTELNYKNTEPVLDSDGSYFMYSKLRVEKKNWVERNSYSCSVVHEGLHNHHTTKSFSRTPGK light: DIMMTQSPSSLSVSAGEKATITCKSSQSLFNSNTNKNYLNWYLQKPGQSPKLLFYYASTRHTGVPDRFIGSGSGTDFTLTITSVQDEDLADYYCQQWYSYPWTFGPGTKLEIKRADAAPTVSIFPPSSEQLTSGGASVVCFLNNFYPKDINVKWKIDGSERQNGVLNSWTDQDSKDSTYSMSSTLTLTKDEYERHNSYTCEATHKTSTSPIVKSFNRNEC | 79 ± 2.2 | – | –
mAb15: anti-mouse ENTPD2 antibody, T30 variant of mAb13; HC SEQ ID NO: 218, LC SEQ ID NO: 204 (antibody) heavy: QVQLVQSGAELKQPGQSVKISCKASGYTFHHYGMNWVKQAPGQGLKWMGWINTDTGNPTYADDFKGRFVFSLDTSVSTAYLQISNLKNEDTATYYCVRYGTLYSGYGFFFDSWGQGTLVTVSSAKTTAPSVYPLAPVCGDTTGSSVTLGCLVKGYFPEPVTLTWNSGSLSSGVHTFPAVLQSDLYTLSSSVTVTSSTWPSQSITCNVAHPASSTKVDKKIEPRGPTIKPCPPCKCPAPNLLGGPSVFIFPPKIKDVLMISLSPIVTCVVVDVSEDDPDVQISWFVNNVEVHTAQTQTHREDYNSTLRVVSALPIQHQDWMSGKEFKCKVNNKDLPAPIERTISKPKGSVRAPQVYVLPPPEEEMTKKQVTLTCMVTDFMPEDIYVEWTNNGKTELNYKNTEPVLDSDGSYFMYSKLRVEKKNWVERNSYSCSVVHEGLHNHHTTKSFSRTPGK light: DIMMTQSPSSLSVSAGEKATITCKSSQSLFNSNTNKNYLNWYLQKPGQSPKLLFYYASTRHTGVPDRFIGSGSGTDFTLTITSVQDEDLADYYCQQWYSYPWTFGPGTKLEIKRADAAPTVSIFPPSSEQLTSGGASVVCFLNNFYPKDINVKWKIDGSERQNGVLNSWTDQDSKDSTYSMSSTLTLTKDEYERHNSYTCEATHKTSTSPIVKSFNRNEC | 76 ± 3.4 | – | –
mAb19: anti-human ENTPD2 antibody of Table 1; VH SEQ ID NO: 250, VL SEQ ID NO: 257 (antibody, V domains shown) VH: EVQLQQFGAELVKPGTSVKISCKASGYTFTDYNMDWVKQSHGKSLEWIGDINPNYDITTYNQRFKGKATLTVDKSSSTAYMELRSLTSEDTAVYYCARRGFFPYYGNSYYYFDVWGAGTTVTVSS VL: QIVLTQSPTIMSASLGEEITLTCSASSSVSYMHWYQQKSGTSPKLLIYSTSNLASGVPSRFSGSGSGTFYSLTISSVEAEDAADYYCHQWSNYPWTFGGGTKLEIK | – | potently inhibit | –
mAb21: anti-human ENTPD2 antibody of Table 1; VH SEQ ID NO: 281, VL SEQ ID NO: 287 (antibody, V domains shown) VH: EVQLQQSGPELVKPGASVKISCKTSGYTFTEYTMHWVKQSHGKSLEWIGGINPNNGITTYNQKFKGKATLTVDKSSSTAYMDLRSLTSEGSAVYYCARRGFPIYYYGTSLYYFDYWGQGTTLTVSS VL: QIVLTQSPAIMSASLGEEITLTCSASSSVSYMHWYQQRSGTSPKLLIYTTSNLASGVPSRFSGSGSGTFYSLTISSVEAEDAADYYCHQWSSYPWTFGGGTKLEIK | – | potently inhibit | –
